We go through three proteins from publication PMC8999790, “The Transition of Photoreceptor Guanylate Cyclase Type 1 to the Active State” (International Journal of Molecular Sciences, 2022).

Type in all cases: biochemical, Homo sapiens
Substrate in series [1]: Nc1nc2c(ncn2[C@@H]2O[C@H](COP(=O)(O)OP(=O)(O)OP(=O)(O)O)[C@@H](O)[C@H]2O)c(=O)[nH]1
Briefly: cells, lysate or membranes. The note with it: Mg-GTP, pH 7.2, 30 °C, half-maximal saturation.

Substrate in series [2]: Nc1nc2c(ncn2[C@@H]2O[C@H](COP(=O)(O)OP(=O)(O)OP(=O)(O)O)[C@@H](O)[C@H]2O)c(=O)[nH]1
Briefly: cGMP formation by HPLC in HEK293 membranes, Hill fit. The note with it: Mg-GTP, 5 uM GCAP1, <=10 nM free Ca2+ (2 mM EGTA), pH 7.2, 30 °C, half-maximal saturation, Hill h 1.75. The text has this: cGMP formation by HPLC in HEK293 membranes, Hill fit on human GC-E + GCAP1

Substrate in series [3]: Nc1nc2c(ncn2[C@@H]2O[C@H](COP(=O)(O)OP(=O)(O)OP(=O)(O)O)[C@@H](O)[C@H]2O)c(=O)[nH]1
Described as above. The note with it: Mg-GTP, 5 uM GCAP2, <=10 nM free Ca2+ (2 mM EGTA), pH 7.2, 30 °C, half-maximal saturation, Hill h 1.76. The text has this: cGMP formation by HPLC in HEK293 membranes, Hill fit on human GC-E + GCAP2

Substrate in series [4]: Nc1nc2c(ncn2[C@@H]2O[C@H](COP(=O)(O)OP(=O)(O)OP(=O)(O)O)[C@@H](O)[C@H]2O)c(=O)[nH]1
Described as above. The note with it: Mg-GTP, no GCAPs, <=10 nM free Ca2+ (2 mM EGTA), pH 7.2, 30 °C, half-maximal saturation, Hill h 1.58. The text has this: cGMP formation by HPLC in HEK293 membranes, Hill fit on human GC-E (no GCAPs)

The mark [5] stands for this setting: 5 uM GCAP1, <=10 nM free Ca2+ (2 mM EGTA), Hill h 1.75, apparent KM.
Where [6] appears, read: 5 uM GCAP2, <=10 nM free Ca2+ (2 mM EGTA), Hill h 1.76, apparent KM.
Where [7] appears, read: no GCAPs, <=10 nM free Ca2+ (2 mM EGTA), Hill h 1.58, apparent KM.

B1: human GC-E + GCAP1 (Homo sapiens; V902L) (protein)
chain: AVFTVGVLGPWACDPIFSRARPDLAARLAAARLNRDPGLAGGPRFEVALLPEPCRTPGSLGAVSSALARVSGLVGPVNPAACRPAELLAEEAGIALVPWGCPWTQAEGTTAPAVTPAADALYALLRAFGWARVALVTAPQDLWVEAGRSLSTALRARGLPVASVTSMEPLDLSGAREALRKVRDGPRVTAVIMVMHSVLLGGEEQRYLLEAAEELGLTDGSLVFLPFDTIHYALSPGPEALAALANSSQLRRAHDAVLTLTRHCPSEGSVLDSLRRAQERRELPSDLNLQQVSPLFGTIYDAVFLLARGVAEARAAAGGRWVSGAAVARHIRDAQVPGFCGDLGGDEEPPFVLLDTDAAGDRLFATYMLDPARGSFLSAGTRMHFPRGGSAPGPDPSCWFDPNNICGGGLEPGLVFLGFLLVVGMGLAGAFLAHYVRHRLLHMQMVSGPNKIILTVDDITFLHPHGGTSRKVAQGSRSSLGARSMSDIRSGPSQHLDSPNIGVYEGDRVWLKKFPGDQHIAIRPATKTAFSKLQELRHENVALYLGLFLARGAEGPAALWEGNLAVVSEHCTRGSLQDLLAQREIKLDWMFKSSLLLDLIKGIRYLHHRGVAHGRLKSRNCIVDGRFVLKITDHGHGRLLEAQKVLPEPPRAEDQLWTAPELLRDPALERRGTLAGDVFSLAIIMQEVVCRSAPYAMLELTPEEVVQRVRSPPPLCRPLVSMDQAPVECILLMKQCWAEQPELRPSMDHTFDLFKNINKGRKTNIIDSMLRMLEQYSSNLEDLIRERTEELELEKQKTDRLLTQMLPPSVAEALKTGTPVEPEYFEQVTLYFSDIVGFTTISAMSEPIEVLDLLNDLYTLFDAIIGSHDVYKVETIGDAYMVASGLPQRNGQRHAAEIANMSLDILSAVGTFRMRHMPEVPVRIRIGLHSGPCVAGVVGLTMPRYCLFGDTVNTASRMESTGLPYRIHVNLSTVGILRALDSGYQVELRGRTELKGKGAEDTFWLVGRRGFNKPIPKPPDLQPGSSNHGISLQEIPPERRRKLEKARPGQFS
notes: full-length GC-E transiently expressed in HEK293, membrane suspension
As for B1, in series [1] (setting [5]), the Km was determined as 200 µM and the kcat/Km was 4000 M⁻¹ s⁻¹. For the same protein, in series [2], the K0.5 came out at 0.20 mM and the kcat/Km amounted to 4000 M⁻¹ s⁻¹.

B2: human GC-E + GCAP2 (Homo sapiens; V902L) (protein)
chain: AVFTVGVLGPWACDPIFSRARPDLAARLAAARLNRDPGLAGGPRFEVALLPEPCRTPGSLGAVSSALARVSGLVGPVNPAACRPAELLAEEAGIALVPWGCPWTQAEGTTAPAVTPAADALYALLRAFGWARVALVTAPQDLWVEAGRSLSTALRARGLPVASVTSMEPLDLSGAREALRKVRDGPRVTAVIMVMHSVLLGGEEQRYLLEAAEELGLTDGSLVFLPFDTIHYALSPGPEALAALANSSQLRRAHDAVLTLTRHCPSEGSVLDSLRRAQERRELPSDLNLQQVSPLFGTIYDAVFLLARGVAEARAAAGGRWVSGAAVARHIRDAQVPGFCGDLGGDEEPPFVLLDTDAAGDRLFATYMLDPARGSFLSAGTRMHFPRGGSAPGPDPSCWFDPNNICGGGLEPGLVFLGFLLVVGMGLAGAFLAHYVRHRLLHMQMVSGPNKIILTVDDITFLHPHGGTSRKVAQGSRSSLGARSMSDIRSGPSQHLDSPNIGVYEGDRVWLKKFPGDQHIAIRPATKTAFSKLQELRHENVALYLGLFLARGAEGPAALWEGNLAVVSEHCTRGSLQDLLAQREIKLDWMFKSSLLLDLIKGIRYLHHRGVAHGRLKSRNCIVDGRFVLKITDHGHGRLLEAQKVLPEPPRAEDQLWTAPELLRDPALERRGTLAGDVFSLAIIMQEVVCRSAPYAMLELTPEEVVQRVRSPPPLCRPLVSMDQAPVECILLMKQCWAEQPELRPSMDHTFDLFKNINKGRKTNIIDSMLRMLEQYSSNLEDLIRERTEELELEKQKTDRLLTQMLPPSVAEALKTGTPVEPEYFEQVTLYFSDIVGFTTISAMSEPIEVLDLLNDLYTLFDAIIGSHDVYKVETIGDAYMVASGLPQRNGQRHAAEIANMSLDILSAVGTFRMRHMPEVPVRIRIGLHSGPCVAGVVGLTMPRYCLFGDTVNTASRMESTGLPYRIHVNLSTVGILRALDSGYQVELRGRTELKGKGAEDTFWLVGRRGFNKPIPKPPDLQPGSSNHGISLQEIPPERRRKLEKARPGQFS
notes: as for B1
As for B2, in series [1] (setting [6]), the Km amounted to 310 µM and the kcat/Km is 2200 M⁻¹ s⁻¹. Moreover, in series [3], the K0.5 is reported as 0.36 mM and the kcat/Km turned out to be 2200 M⁻¹ s⁻¹.

B3: human GC-E (no GCAPs) (Homo sapiens; V902L) (protein)
chain: AVFTVGVLGPWACDPIFSRARPDLAARLAAARLNRDPGLAGGPRFEVALLPEPCRTPGSLGAVSSALARVSGLVGPVNPAACRPAELLAEEAGIALVPWGCPWTQAEGTTAPAVTPAADALYALLRAFGWARVALVTAPQDLWVEAGRSLSTALRARGLPVASVTSMEPLDLSGAREALRKVRDGPRVTAVIMVMHSVLLGGEEQRYLLEAAEELGLTDGSLVFLPFDTIHYALSPGPEALAALANSSQLRRAHDAVLTLTRHCPSEGSVLDSLRRAQERRELPSDLNLQQVSPLFGTIYDAVFLLARGVAEARAAAGGRWVSGAAVARHIRDAQVPGFCGDLGGDEEPPFVLLDTDAAGDRLFATYMLDPARGSFLSAGTRMHFPRGGSAPGPDPSCWFDPNNICGGGLEPGLVFLGFLLVVGMGLAGAFLAHYVRHRLLHMQMVSGPNKIILTVDDITFLHPHGGTSRKVAQGSRSSLGARSMSDIRSGPSQHLDSPNIGVYEGDRVWLKKFPGDQHIAIRPATKTAFSKLQELRHENVALYLGLFLARGAEGPAALWEGNLAVVSEHCTRGSLQDLLAQREIKLDWMFKSSLLLDLIKGIRYLHHRGVAHGRLKSRNCIVDGRFVLKITDHGHGRLLEAQKVLPEPPRAEDQLWTAPELLRDPALERRGTLAGDVFSLAIIMQEVVCRSAPYAMLELTPEEVVQRVRSPPPLCRPLVSMDQAPVECILLMKQCWAEQPELRPSMDHTFDLFKNINKGRKTNIIDSMLRMLEQYSSNLEDLIRERTEELELEKQKTDRLLTQMLPPSVAEALKTGTPVEPEYFEQVTLYFSDIVGFTTISAMSEPIEVLDLLNDLYTLFDAIIGSHDVYKVETIGDAYMVASGLPQRNGQRHAAEIANMSLDILSAVGTFRMRHMPEVPVRIRIGLHSGPCVAGVVGLTMPRYCLFGDTVNTASRMESTGLPYRIHVNLSTVGILRALDSGYQVELRGRTELKGKGAEDTFWLVGRRGFNKPIPKPPDLQPGSSNHGISLQEIPPERRRKLEKARPGQFS
notes: full-length GC-E transiently expressed in HEK293, membrane suspension; no GCAP added
Consider B3, for which, in series [4], the K0.5 was 0.37 mM and the kcat/Km stood at 2100 M⁻¹ s⁻¹. Also, in series [1] (setting [7]), the Km was found to be 340 µM and the catalytic efficiency (kcat/Km) amounted to 2100 M⁻¹ s⁻¹.

The term Km denotes the concentration of substrate that gives half-maximal velocity. One may read the kcat/Km as the second-order rate constant that governs catalysis at low substrate concentration.
